The values that follow come from PMC6318328, “Structural insights into trans-histone regulation of H3K4 methylation by unique histone H4 binding of MLL3/4” (Nature Communications, 2019).

One may read the Kd as a measure of binding affinity in units of concentration. Low readings indicate tighter binding, high ones weaker binding. A word on the stoichiometry N: it is a count of units in the complex or per binding partner.

The labels stand for the following.
T1: MLL3_(ePHD6)_(1075–1144) (human, UniProt Q8NEZ4 1075-1144)
T1 construct: MLL3 (KMT2C), human, residues 1075–1144; also called MLL3_ePHD6, residues 1075–1144; source: E. coli BL21 (DE3) Codon plus RIL, purified (Ni-NTA, thrombin, HiTrap Q, Superdex75); not shown: GST, N-terminal, cleaved; His tag, N-terminal, cleaved
T1 sequence (looked up): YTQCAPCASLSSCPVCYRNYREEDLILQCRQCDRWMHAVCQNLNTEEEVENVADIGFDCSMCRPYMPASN

T2: MLL3_(PHD5-6)_(1008–1144) (human, UniProt Q8NEZ4 1008-1144)
T2 construct: MLL3 (KMT2C), human, residues 1008–1144; also called PHD5–6 of MLL3; source: E. coli BL21 (DE3) Codon plus RIL, purified (Ni-NTA, thrombin, HiTrap Q, Superdex75); not shown: GST, N-terminal, cleaved; His tag, N-terminal, cleaved
T2 sequence (looked up): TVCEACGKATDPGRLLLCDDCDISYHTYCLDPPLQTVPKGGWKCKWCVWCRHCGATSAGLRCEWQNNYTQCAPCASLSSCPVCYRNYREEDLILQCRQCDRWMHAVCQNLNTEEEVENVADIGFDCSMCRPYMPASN

T3: MLL3_(ePHD6)_(1055–1144) (human, UniProt Q8NEZ4 1055-1144)
T3 construct: MLL3 (KMT2C), human, residues 1055–1144: the zinc finger before PHD6 and the sixth PHD domain; Monomer in solution by gel filtration; the dimer in the crystal is put down to crystal packing; also called extended PHD6 domain of MLL3; source: E. coli BL21 (DE3) Codon plus RIL, purified (Ni-NTA, thrombin, HiTrap Q, Superdex75); not shown: GST, N-terminal, cleaved; His tag, N-terminal, cleaved
T3 sequence (looked up): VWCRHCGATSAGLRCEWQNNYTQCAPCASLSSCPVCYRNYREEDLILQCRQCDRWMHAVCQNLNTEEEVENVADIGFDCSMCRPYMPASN

B1: histone H4 peptide H4_(11–21) (peptide, UniProt P62805 12-22, looked up)
peptide: GKGGAKRHRKV
notes: histone H4, residues 11–21; also called H4H18 peptide; source: synthetic peptide (Peptide 2.0 Inc.)
B2: MLL4_(PHD6)_(1505–1564) (domain or fragment, human, UniProt O14686 1505-1564, looked up)
chain: VTCPICHAPYVEEDLLIQCRHCERWMHAGCESLFTEDDVEQAADEGFDCVSCQPYVVKPV
notes: MLL4 (KMT2D), human, residues 1505–1564 (sixth PHD domain alone); also called PHD6 domain of MLL4; source: E. coli BL21 (DE3) Codon plus RIL, purified (Ni-NTA, thrombin, HiTrap Q, Superdex75); not shown: GST, N-terminal, cleaved; His tag, N-terminal, cleaved
B3: MLL4_(ePHD6)_(1475–1564) (domain or fragment, human, UniProt O14686 1475-1564, looked up)
chain: VSCMQCGAASPGFHCEWQNSYTHCGPCASLVTCPICHAPYVEEDLLIQCRHCERWMHAGCESLFTEDDVEQAADEGFDCVSCQPYVVKPV
notes: MLL4 (KMT2D, ALR), human, residues 1475–1564: the zinc finger before PHD6 and the sixth PHD domain; also called extended PHD6 domain of MLL4; source: E. coli BL21 (DE3) Codon plus RIL, purified (Ni-NTA, thrombin, HiTrap Q, Superdex75); not shown: GST, N-terminal, cleaved; His tag, N-terminal, cleaved

In data set [1] the target is T4, MLL4_(ePHD6)_(1495–1564) (human, UniProt O14686 1495-1564).
T4 construct: MLL4 (KMT2D), human, residues 1495–1564; also called MLL4_ePHD6, residues 1495–1564; source: E. coli BL21 (DE3) Codon plus RIL, purified (Ni-NTA, thrombin, HiTrap Q, Superdex75); not shown: GST, N-terminal, cleaved; His tag, N-terminal, cleaved
The experiment in a line: ITC; peptide (1–2 mM) in the syringe injected into protein (50–100 μM) in the cell; 25 °C; 20 mM Tris pH 7.5, 150 mM NaCl; single-site binding model. The note with it: both partners purified.

The target in data set [2] is T1, MLL3_(ePHD6)_(1075–1144). Described as above. The following applies: both partners purified.
Data set [3] has as its target T2, MLL3_(PHD5-6)_(1008–1144). The description is as above. The following applies: both partners purified.
Data set [4] deals with T3, MLL3_(ePHD6)_(1055–1144). The data set is described as above. The following applies: both partners purified.
Data set [5] concerns the target B3. The description is as above. The following applies: both partners purified.
Data set [6] concerns the molecule itself. The experiment in a line: SEC; gel-filtration profiles of the purified domains (Supplementary Fig. 3). For orientation: Size exclusion chromatography separates by hydrodynamic size, large species first.

On to B1, for which the dissociation constant (Kd) in data set [1] came to 48 µM; in data set [2], 31 µM; in data set [3] it was 83 µM; in data set [4], 35 µM; in data set [5] it was 52 µM.

With B2, the “stoichiometry N” value in data set [6] came to 2.

On to B3, for which the “stoichiometry N” value in data set [6] came to 2.
